The record followed here is publication PMC6586375.

As usually defined, the pKd is the negative decadic logarithm of the Kd, by convention in mol/L. A high value points to a low Kd.

pKd: −log10 of the molar value.

For the assay, the target named is His-tagged BspC labelled with the Monolith His-Tag Labeling Kit RED-tris-NTA 2nd Generation (Streptococcus agalactiae). As to the kind of experiment: MST; labelled His-tagged BspC constant at 10 nM, vimentin titrated 1:1 in 16 steps from 20 μM to 0 μM; standard capillaries, Monolith NT.115 Pico, 20% excitation power, 40% MST power; three independent experiments.

Take “vimentin purchased from Novus Biologicals (from UniProt P08670 1-466) (natural protein)”: the pKd was 5.47.
